Laboratory results reported in article PMC6203763.
Blank lines part the entries; values can stand above or below the molecule they belong to.

Key:
[1] = target: recombinant human wild-type SHMT2 (isoform 3) (human); assay: SEC; recombinant proteins purified by nickel affinity chromatography, separated by gel filtration, fractions analysed by western blot
[2] = target: T1, Flag-tagged wild-type SHMT2 expressed in SHMT2-knockout HCT116 cells (human), P34897; assay: cross-linking; cell lysates treated with or without 0.025% glutaraldehyde, western blot with anti-SHMT2; SHMT2-knockout HCT116 cells expressing Flag-tagged WT or K95Q, and SIRT3-knockout or control HCT116 cells; conditions: remark: other sources report otherwise
T1 chain: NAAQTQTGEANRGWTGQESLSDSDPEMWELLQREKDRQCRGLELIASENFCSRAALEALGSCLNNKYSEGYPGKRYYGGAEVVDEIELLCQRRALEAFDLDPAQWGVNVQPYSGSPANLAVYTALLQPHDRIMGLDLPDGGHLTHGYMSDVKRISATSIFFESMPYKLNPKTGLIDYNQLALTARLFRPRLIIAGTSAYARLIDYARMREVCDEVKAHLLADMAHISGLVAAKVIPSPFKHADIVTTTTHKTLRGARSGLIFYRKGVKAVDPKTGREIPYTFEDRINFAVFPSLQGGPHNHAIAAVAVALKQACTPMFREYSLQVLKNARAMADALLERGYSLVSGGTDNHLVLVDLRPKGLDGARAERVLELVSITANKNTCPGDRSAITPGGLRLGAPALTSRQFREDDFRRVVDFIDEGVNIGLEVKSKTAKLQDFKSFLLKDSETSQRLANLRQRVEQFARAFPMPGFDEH

[3] = target: T2, serine hydroxymethyltransferase 2 (SHMT2), endogenous in HCT116 cells (human (endogenous in HCT116)), P34897; assay: as above; conditions: remark: other sources report otherwise
T2 chain: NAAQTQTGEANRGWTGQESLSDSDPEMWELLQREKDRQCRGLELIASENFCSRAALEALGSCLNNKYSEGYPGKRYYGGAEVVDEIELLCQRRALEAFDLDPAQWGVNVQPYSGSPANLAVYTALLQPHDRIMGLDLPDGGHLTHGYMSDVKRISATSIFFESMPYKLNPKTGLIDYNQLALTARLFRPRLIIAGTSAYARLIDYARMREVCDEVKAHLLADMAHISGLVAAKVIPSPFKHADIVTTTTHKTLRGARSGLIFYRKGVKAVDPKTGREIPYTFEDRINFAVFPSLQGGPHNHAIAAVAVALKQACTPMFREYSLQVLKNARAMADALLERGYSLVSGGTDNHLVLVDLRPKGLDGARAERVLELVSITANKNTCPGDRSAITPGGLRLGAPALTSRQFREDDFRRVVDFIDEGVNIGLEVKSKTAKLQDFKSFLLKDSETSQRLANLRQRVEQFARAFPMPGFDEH

stoichiometry N [1]: 4
Molecule: recombinant human wild-type SHMT2 (isoform 3) (enzyme)

stoichiometry N [2]: 4
B1: Flag-tagged wild-type SHMT2 expressed in SHMT2-knockout HCT116 cells, P34897 30-504 (natural protein)
chain: NAAQTQTGEANRGWTGQESLSDSDPEMWELLQREKDRQCRGLELIASENFCSRAALEALGSCLNNKYSEGYPGKRYYGGAEVVDEIELLCQRRALEAFDLDPAQWGVNVQPYSGSPANLAVYTALLQPHDRIMGLDLPDGGHLTHGYMSDVKRISATSIFFESMPYKLNPKTGLIDYNQLALTARLFRPRLIIAGTSAYARLIDYARMREVCDEVKAHLLADMAHISGLVAAKVIPSPFKHADIVTTTTHKTLRGARSGLIFYRKGVKAVDPKTGREIPYTFEDRINFAVFPSLQGGPHNHAIAAVAVALKQACTPMFREYSLQVLKNARAMADALLERGYSLVSGGTDNHLVLVDLRPKGLDGARAERVLELVSITANKNTCPGDRSAITPGGLRLGAPALTSRQFREDDFRRVVDFIDEGVNIGLEVKSKTAKLQDFKSFLLKDSETSQRLANLRQRVEQFARAFPMPGFDEH

stoichiometry N [3]: 4
B2: serine hydroxymethyltransferase 2 (SHMT2), endogenous in HCT116 cells, P34897 30-504 (natural protein)
chain: NAAQTQTGEANRGWTGQESLSDSDPEMWELLQREKDRQCRGLELIASENFCSRAALEALGSCLNNKYSEGYPGKRYYGGAEVVDEIELLCQRRALEAFDLDPAQWGVNVQPYSGSPANLAVYTALLQPHDRIMGLDLPDGGHLTHGYMSDVKRISATSIFFESMPYKLNPKTGLIDYNQLALTARLFRPRLIIAGTSAYARLIDYARMREVCDEVKAHLLADMAHISGLVAAKVIPSPFKHADIVTTTTHKTLRGARSGLIFYRKGVKAVDPKTGREIPYTFEDRINFAVFPSLQGGPHNHAIAAVAVALKQACTPMFREYSLQVLKNARAMADALLERGYSLVSGGTDNHLVLVDLRPKGLDGARAERVLELVSITANKNTCPGDRSAITPGGLRLGAPALTSRQFREDDFRRVVDFIDEGVNIGLEVKSKTAKLQDFKSFLLKDSETSQRLANLRQRVEQFARAFPMPGFDEH
